These results are taken from patent US20220363752A1 (VERSEAU THERAPEUTICS, published 2022).

Changes are numbered by the printed parent chain. Primed or numbered codes have the meaning given here. Biotin′ = not defined here

Test [1] deals with T1, LRRC25(21-40) biotin peptide (human, not fully specified; N-terminal NH2; C-terminal GGK-Biotin; native Cys changed to Ser).
T1 peptide: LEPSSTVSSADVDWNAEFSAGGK
Nature of the test: peptide ELISA. As to the method: (§1) To establish if functional chimera anti-LRRC25 antibodies recognize particular regions of LRRC25, ELISA experiments were performed using 10 plate-immobilized 16- to 20-mer overlapping LRRC25(ECD) biotin peptides (Table 7). Biotinylated human LRRC25-His served as a positive control. A typical ELISA was performed by coating overnight at 4° C., 3 ug/mL/25 ul per well of streptavidin (Jackson Immunoresearch, Cat. #016-030-084) in PBS in half-area high binding microtiter wells (Corning Cat. #3690). […] Biotin peptides or biotinylated human LRRC25-His protein were added in duplicate (2 ug/mL/25 ul per well) in assay buffer (blocking buffer containing 0.05% tween 20) and the plate incubated for 45 min at 37° C. The plate was washed as before, 20 nM anti-LRRC25 antibodies in assay buffer added in duplicate into appropriate wells, and the plate incubated as before. The plate was washed and HRP-conjugated secondary antibody in assay buffer added [25 ul per well; goat anti-human IgG (Jackson Immunoresearch, Cat. #715-035-150)], and incubated as before. Antibody bound to plate-immobilized peptide(s) or protein was determined at A450 nm using HRP substrate (3,3′,5,5′-tetramethylbenzidine (TMB); eBioscience; Cat. #00-4201-56); 100 μl/well).

The target in test [2] is T2, LRRC25(36-55) biotin peptide (human, not fully specified; N-terminal NH2; C-terminal GGK-Biotin; native Cys changed to Ser).
T2 peptide: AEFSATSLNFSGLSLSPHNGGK
Description: peptide ELISA. As to the method: as §1

Test [3] deals with T3, LRRC25(51-69) biotin peptide (human, not fully specified; N-terminal acetyl; C-terminal GGK-Biotin).
T3 peptide: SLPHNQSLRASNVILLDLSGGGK
Nature of the test: peptide ELISA. As to the method: as §1

Test [4] has as its target T4, LRRC25(66-85) biotin peptide (human, not fully specified; N-terminal acetyl; C-terminal GGK-Biotin).
T4 peptide: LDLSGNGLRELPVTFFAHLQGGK
Nature of the test: peptide ELISA. As to the method:
as §1

The target of test [5] is T5, LRRC25(81-100) biotin peptide (human, not fully specified; N-terminal acetyl; C-terminal GGK-Biotin).
T5 peptide: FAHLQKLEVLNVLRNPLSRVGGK
Description: peptide ELISA. As to the method: as §1
A general note: In an ELISA, binding on a coated surface is turned into a signal by an enzyme label.

The target of test [6] is T6, LRRC25(111-130) biotin peptide (human, not fully specified; N-terminal acetyl; C-terminal GGK-Biotin; native Cys changed to Ser).
T6 peptide: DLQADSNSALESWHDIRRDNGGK
Description: peptide ELISA. On the procedure: as §1

Test [7] has as its target T7, LRRC25(126-145) biotin peptide (human, not fully specified; N-terminal acetyl; C-terminal GGK-Biotin; native Cys changed to Ser).
T7 peptide: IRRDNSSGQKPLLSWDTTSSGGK
Nature of the test: peptide ELISA. On the procedure:
as §1

For test [8], the target named is T8, LRRC25(141-159) biotin peptide (human, not fully specified; N-terminal acetyl; C-terminal GGK-Biotin; native Cys changed to Ser).
T8 peptide: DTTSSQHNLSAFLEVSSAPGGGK
Description: peptide ELISA. As to the method:
as §1

In test [9] the target is T9, LRRC25(150-165) biotin peptide (human).
T9 peptide: Ac-SAFLEVSSAPGLASATGG-{Biotin′}
Description: peptide ELISA. As to the method:
as §1

Test [10] has as its target T10, His-tagged human LRRC25 extracellular domain protein, human LRRC25-His (human, UniProt Q8N386 21-165).
T10 construct: The entry holds the extracellular domain, a GSG linker and the His tag; also called LRRC25(ECD)-HIS
Description: ELISA, plate-immobilized antigen. On the procedure: To establish the relative binding strengths of anti-LRRC25 antibodies against human LRRC25, and their cross-reactivity with cynomolgus monkey LRRC25, antibody binding curve analyses were performed and EC50 values against plate-immobilized recombinant human and cyno LRRC25 proteins were determined.
(§2) A typical ELISA was performed by coating overnight in PBS, pH 7.4, at 4° C. in high binding microtiter wells with 1 ug/mL/100 ul per well of human LRRC25-His or cyno LRRC25-His. An anti-human LRRC25 antibody (2A3, LS Bio, LS-C174039-100) and anti-HIS-HRP (Miltenyi Biotec; 130-092-783) served as coating controls for the human and cyno LRRC25 proteins, respectively. […] Anti-LRRC25 antibodies were added (100 ul per well) at 500 nM and serially diluted 3-fold in assay buffer (1% skimmed milk in PBS, pH 7.4). The plate was incubated with gentle agitation for 1 h at room temperature. The plate was washed 3× and HRP-conjugated secondary antibody in assay buffer added [100 ul per well; goat anti-human IgG (Jackson Immunoresearch, cat #715-035-150)], and the plate was incubated as before. Antibody bound to plate-immobilized LRRC25(ECD)-HIS was determined at A450 nm using HRP substrate (3,3′,5,5′-tetramethylbenzidine (TMB); eBioscience; 00-4201-56); 100 μl/well).

Test [11] deals with T11, His-tagged cynomolgus monkey LRRC25 extracellular domain protein, cyno LRRC25-His (cynomolgus monkey).
T11 construct: The entry holds the extracellular domain, a GSG linker and the His tag
T11 sequence (chain, as listed by the source limits assumed): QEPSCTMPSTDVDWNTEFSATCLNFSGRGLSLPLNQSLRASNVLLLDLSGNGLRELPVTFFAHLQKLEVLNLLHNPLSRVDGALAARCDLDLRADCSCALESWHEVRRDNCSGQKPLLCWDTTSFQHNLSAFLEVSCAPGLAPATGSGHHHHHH
Description: ELISA, plate-immobilized cyno LRRC25-His. As to the method: as §2

In test [12] the target is T12, biotinylated human LRRC25-His protein (human, UniProt Q8N386 21-165, biotinylated (sites not given)).
T12 construct: also called Biotin LRRC25-His; biotinylated LRRC25 protein
T12 sequence (Q8N386 other isoform, or with tags, fused parts or gaps): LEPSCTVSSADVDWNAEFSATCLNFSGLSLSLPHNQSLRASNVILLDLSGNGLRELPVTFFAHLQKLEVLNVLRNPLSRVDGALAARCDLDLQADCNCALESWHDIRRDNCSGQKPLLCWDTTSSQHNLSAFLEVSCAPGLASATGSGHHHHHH
Nature of the test: ELISA, 20 nM antibody, biotinylated antigen on streptavidin plate. On the procedure: as §1

In test [13] the target is T13, LRRC25(96-115) biotin peptide (human, not fully specified; N-terminal acetyl; C-terminal GGK-Biotin; native Cys changed to Ser).
T13 construct: also called Biotin LRRC25 (96-115) peptide
T13 peptide: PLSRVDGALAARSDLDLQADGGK
The description is as above. On the procedure:
as §1

For test [14], the target named is T13, LRRC25(96-115) biotin peptide. Nature of the test: peptide ELISA. As to the method:
as §1

T10 sequence (Q8N386 other isoform, or with tags, fused parts or gaps): as the sequence (Q8N386 other isoform, or with tags, fused parts or gaps) above

B1: anti-LRRC25 chimeric antibody 3F06 (antibody, human IgG4, V domains shown)
VH: DVMLVESGGGLVKPGGSLKLSCAASGFTFSSYAMSWVRQTPDKRLEWVASISSSGNTYYPDTMKGRFTISRDNARNILYLQMSSLRSEDTAMYYCARGLTGTLFAYWGQGTLVTVSA
VL: DIVMTQDAPSVPVTPGESVSISCRSSKSLLHSNGITFLYWFLQKPGQSPQLLIYQMSNLASGVPDRFSSSGSGTDFTLRISRVEAEDVGVYYCAQNLELPFTFGSGTKLEIGR
Broadly, the EC50 is the concentration that produces a half-maximal response. B1: the binding result in [1], in test [2], in test [3], in test [4], in test [5] and in [6] was “no binding (tested: 20 nM)” throughout. The binding result in [7] is listed as “no binding (tested: 20 nM)”; in test [8], “no binding (tested: 20 nM)”; in test [9], “no binding (tested: 20 nM)”; in test [11], “no binding (tested: 500 nM)”. Further, in test [10], the EC50 turned out to be 1.9 nM. In addition, the “absorbance (A450)” value in test [12] came out at 1.23 A450; in test [13], 2.8 A450.

B2: anti-LRRC25 chimeric antibody 1G08 (antibody, human IgG4, V domains shown)
VH: DVQLVESGGGLVKPGGSLKLSCAASGFTFSNYAMSWVRQTPEKRLEWVASISRGGNTYYPDSVKGRFTISRDNARNILYLQMSSLRSEDTAIYYCTRGNYGSSPFAYWGQGTLVTVSA
VL: DIVLTQSPASLAVSLGQRATISCRASESVDSYGNSFMHWYQQKPGQPPKLLIYLASNLESGVPARFSGSGSRTDFTLTIDPVEADDAATYYCQQNNEDPWTFGGGTKLEIKR
Regarding B2, the binding result in test [1], in [2], in [3], in test [4], in test [5] and in [14] was “no binding (tested: 20 nM)” throughout. Besides, the binding result in test [6] is “no binding (tested: 20 nM)”; in test [7], “no binding (tested: 20 nM)”; in test [8] it was “no binding (tested: 20 nM)”; in [9], “no binding (tested: 20 nM)”; in test [11], “no binding (tested: 500 nM)”. Also, in test [10], the EC50 is 3.2 nM. Moreover, the “absorbance (A450)” value stood at 0.324 A450 in test [12] and 0.099 A450 in test [13].

B3: anti-LRRC25 chimeric antibody 1F01 (antibody, human IgG4, V domains shown)
VH: B2 VH with D1E, Q3K, V5E, I92T, Y94F, R97K
VL: DIQMTQSPASLSASVGETVTITCRASENIYSYLAWYQQKQGKSPQLLVYNAKTLAEGVPSRFSGSGSGTQFSLKINSLQPEDFGSYYCQHHYGTPFTFGSGTKLEIKR
notes: also called ATCC PTA-126025
In the case of B3, the binding result in test [1], in [2], in test [3], in [4], in test [5] and in test [6] was “no binding (tested: 20 nM)” throughout. Also, the binding result in test [7] is recorded as “no binding (tested: 20 nM)”; in [8] it was “no binding (tested: 20 nM)”; in test [9], “no binding (tested: 20 nM)”; in test [11], “no binding (tested: 500 nM)”. The molecule further had an EC50 in test [10] of 8.3 nM. Moreover, the “absorbance (A450)” value in [12] is 0.507 A450; in test [13], 0.782 A450.

B4: anti-LRRC25 chimeric antibody 3E01 (antibody, human IgG4, V domains shown)
VH: EEKLEESGGGLVKPGGSLKLSCAVSGFTLSSYAMSWVRQTPEKRLEWVASISRGGNTYYPDSVKGRFTISRDNGRNILNLQMSSLRSEDTAIYYCTRGGGSTMITSLFAYWGQGTLVTVSA
VL: DIVMTQAAFSNPVTLGTSASIFCRSSKSLLHSNGITYLYWYLQKPGQSPQLLIYQMSNLASGVPDRFSSSGSGTDFTLRISRVEAEDVGVYYCAQNLELPYTFGGGTKLEIKR
As to B4, the binding result in test [1], in test [2], in test [3], in test [4], in test [5] and in test [14] was “no binding (tested: 20 nM)” in each case. For the same molecule, the binding result is recorded as “no binding (tested: 20 nM)” in [6]; “no binding (tested: 20 nM)” in [7]; “no binding (tested: 20 nM)” in test [8]; “no binding (tested: 20 nM)” in [9]; “no binding (tested: 500 nM)” in test [11]. In [10], this molecule gave a half-maximal effective concentration (EC50) of 45.1 nM. Besides, the “absorbance (A450)” value stood at 0.341 A450 in test [12] and 0.11 A450 in test [13].

B5: anti-LRRC25 chimeric antibody 1A03 (antibody, human IgG4, V domains shown)
VH: EVQLVESGGGLVKPGGSLKLSCAASGFTFSSSAVSWVRQTPEKRLEWVASISRGGNTYYPDSVKGRFTISRDNARNILYLQMSSLRSEDTAMYYCARGQELRLFAYWGQGTLVTVSA
VL: B4 VL with F22S, Y101P
For the molecule B5, the binding result in test [1], in [2], in [3], in test [4], in [5] and in test [6] was “no binding (tested: 20 nM)” in each case. The binding result in test [7] is listed as “no binding (tested: 20 nM)”; in [8], “no binding (tested: 20 nM)”; in test [9] it was “no binding (tested: 20 nM)”; in test [11], “no binding (tested: 500 nM)”. The molecule further had an EC50 in [10] of 6.4 nM. Moreover, the entries for the “absorbance (A450)” value in [12] and in [13] were 0.37 A450 and 0.478 A450, respectively.
